Measurements reported in patent US20210017269A1.

Key:
[1] = molecular target: human complement component C1q (human) (UniProt P02745); assay: ProteOn XPR36 SPR, antibody immobilised, C1q as analyte, equilibrium model
[2] = molecular target: human Fc gamma receptors (FcγR) (human); assay: ProteOn XPR36 SPR, His-tagged receptors captured, antibody as analyte, 25 °C, equilibrium model

human complement component C1q (human), sequence (P02745 23-245 limits assumed, chain 1 of 3): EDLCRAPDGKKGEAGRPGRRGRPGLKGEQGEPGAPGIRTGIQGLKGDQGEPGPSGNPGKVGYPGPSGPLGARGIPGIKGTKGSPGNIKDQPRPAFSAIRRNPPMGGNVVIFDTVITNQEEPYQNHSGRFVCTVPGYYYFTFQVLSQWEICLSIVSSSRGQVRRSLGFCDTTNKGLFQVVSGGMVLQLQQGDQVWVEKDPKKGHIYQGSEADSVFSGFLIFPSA
human complement component C1q (human), sequence (P02746 28-253 limits assumed, chain 2 of 3, further chain): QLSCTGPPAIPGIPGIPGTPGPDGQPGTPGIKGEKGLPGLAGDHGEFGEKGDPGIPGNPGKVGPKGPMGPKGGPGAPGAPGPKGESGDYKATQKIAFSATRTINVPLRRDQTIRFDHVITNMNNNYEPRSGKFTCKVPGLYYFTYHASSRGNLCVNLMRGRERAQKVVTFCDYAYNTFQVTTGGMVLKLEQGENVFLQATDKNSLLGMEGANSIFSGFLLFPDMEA
human complement component C1q (human), sequence (P02747 29-245 limits assumed, chain 3 of 3, further chain): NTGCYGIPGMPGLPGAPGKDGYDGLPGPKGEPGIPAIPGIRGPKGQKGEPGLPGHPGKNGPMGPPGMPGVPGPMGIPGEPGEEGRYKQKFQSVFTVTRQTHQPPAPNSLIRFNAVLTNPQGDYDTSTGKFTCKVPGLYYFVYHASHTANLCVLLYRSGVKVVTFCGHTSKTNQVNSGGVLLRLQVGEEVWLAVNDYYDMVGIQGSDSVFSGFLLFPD

Kd [1] [nM]	fold lower affinity than the human IgG1 wild type control [2] [fold]	Substance
465	–	IgG1 wildtype isotype control (antibody)
–	1.5	YTE containing control antibody
